Measured values from IntAct's records for PubMed 17540172.

B1: "Lethal(3)malignant brain tumor-like protein 1" (Homo sapiens), Q9Y468 (parent)
chain: MHLVAGDSPGSGPHLPATAFIIPASSATLGLPSSALDVSCFPREPIHVGAPEQVAGCEPVSATVLPQLSAGPASSSTSTVRLLEWTEAAAPPPGGGLRFRISEYKPLNMAGVEQPPSPELRQEGVTEYEDGGAPAGDGEAGPQQAEDHPQNPPEDPNQDPPEDDSTCQCQACGPHQAAGPDLGSSNDGCPQLFQERSVIVENSSGSTSASELLKPMKKRKRREYQSPSEEESEPEAMEKQEEGKDPEGQPTASTPESEEWSSSQPATGEKKECWSWESYLEEQKAITAPVSLFQDSQAVTHNKNGFKLGMKLEGIDPQHPSMYFILTVAEVCGYRLRLHFDGYSECHDFWVNANSPDIHPAGWFEKTGHKLQPPKGYKEEEFSWSQYLRSTRAQAAPKHLFVSQSHSPPPLGFQVGMKLEAVDRMNPSLVCVASVTDVVDSRFLVHFDNWDDTYDYWCDPSSPYIHPVGWCQKQGKPLTPPQDYPDPDNFCWEKYLEETGASAVPTWAFKVRPPHSFLVNMKLEAVDRRNPALIRVASVEDVEDHRIKIHFDGWSHGYDFWIDADHPDIHPAGWCSKTGHPLQPPLGPREPSSASPGGCPPLSYRSLPHTRTSKYSFHHRKCPTPGCDGSGHVTGKFTAHHCLSGCPLAERNQSRLKAELSDSEASARKKNLSGFSPRKKPRHHGRIGRPPKYRKIPQEDFQTLTPDVVHQSLFMSALSAHPDRSLSVCWEQHCKLLPGVAGISASTVAKWTIDEVFGFVQTLTGCEDQARLFKDEARIVRVTHVSGKTLVWTVAQLGDLVCSDHLQEGKGILETGVHSLLCSLPTHLLAKLSFASDSQY

Variants of: B1
Details: with h14_human H1-4, P10412
Sequence of h14_human H1-4, P10412 (P10412 whole entry): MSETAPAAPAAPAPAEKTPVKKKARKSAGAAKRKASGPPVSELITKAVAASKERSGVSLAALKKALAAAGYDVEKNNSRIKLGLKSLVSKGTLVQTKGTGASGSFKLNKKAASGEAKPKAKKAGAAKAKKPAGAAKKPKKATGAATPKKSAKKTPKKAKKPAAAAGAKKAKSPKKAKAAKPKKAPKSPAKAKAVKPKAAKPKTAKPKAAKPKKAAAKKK

| Variant | effect of a mutation on the interaction |
| --- | --- |
| F447A | decreasing interaction |

Variants of: B1
Details: with h14_human H1-4, P10412
Remark: another data set of the same source

| Variant | effect of a mutation on the interaction |
| --- | --- |
| D423N | decreasing interaction |

Variants of: B1
Details: with h4_human H4C16, P62805

| Variant | effect of a mutation on the interaction |
| --- | --- |
| D423N | decreasing interaction |
